Data as given in PMC11883000, “Structure-function relationship of ASH1L and histone H3K36 and H3K4 methylation” (Nature Communications, 2025).
Numbering of substitutions follows the chain as printed. Numbers in names are those of the source. Entries after “also recorded” stand apart in the source; their conditions may differ. Blank lines part the entries; values can stand above or below the molecule they belong to.

Columns and labels:
Format in all cases: binding
[1] = tested on: 147 bp 601 DNA; test: EMSA with 147 bp 601 DNA; conditions: 0.05 µM 147 bp 601 DNA, increasing protein, 25 mM Tris pH 7.5, 20 mM NaCl, 20% glycerol, on ice 5 min, at least in duplicate
[2] = tested on: unmodified 187 bp NCP; test: EMSA with unmodified 187 bp NCP
[3] = tested on: H3K4me3-NCP; conditions: EMSA
[4] = tested on: unmodified 147 bp NCP; test: EMSA with unmodified 147 bp NCP; conditions: 0.025 µM nucleosome, pH 7.5, compared to H3K4me3-NCP

B1: ASH1LBD-PHD-BAH: Human ASH1L construct (aa 2436-2833) (protein, UniProt Q9NR48 2436-2833, looked up, fragment)
chain: NIEVARAARLAQIFKEICDGIISYKDSSRQALAAPLLNLPPKKKNADYYEKISDPLDLITIEKQILTGYYKTVEAFDADMLKVFRNAEKYYGRKSPVGRDVCRLRKAYYNARHEASAQIDEIVGETASEADSSETSVSEKENGHEKDDDVIRCICGLYKDEGLMIQCDKCMVWQHCDCMGVNSDVEHYLCEQCDPRPVDREVPMIPRPHYAQPGCVYFICLLRDDLLLRQGDCVYLMRDSRRTPDGHPVRQSYRLLSHINRDKLDIFRIEKLWKNEKEERFAFGHHYFRPHETHHSPSRRFYHNELFRVPLYEIIPLEAVVGTCCVLDLYTYCKGRPKGVKEQDVYICDYRLDKSAHLFYKIHRNRYPVCTKPYAFDHFPKKLTPKKDFSPHYVPDNY
DNA binding [1]: restored; also recorded: further increased
preference over 147bp-NCP ([2]; 187bp-NCP over 147bp-NCP): maintained; also recorded: this preference was retained
preference over 147bp-NCP ([3]; H3K4me3-NCP over 147bp-NCP): maintained

B2: ASH1LBD-PHD: Human ASH1L construct (aa 2430-2629) (protein)
chain: NIEVARAARLAQIFKEICDGIISYKDSSRQALAAPLLNLPPKKKNADYYEKISDPLDLITIEKQILTGYYKTVEAFDADMLKVFRNAEKYYGRKSPVGRDVCRLRKAYYNARHEASAQIDEIVGETASEADSSETSVSEKENGHEKDDDVIRCICGLYKDEGLMIQCDKCMVWQHCDCMGVNSDVEHYLCEQCDPRPVDREVP
DNA binding [1]: decreased

B5: K2524Q/R2528Q/K2529Q mutant: K2524Q/R2528Q/K2529Q mutant of ASH1LBD (protein, UniProt Q9NR48 2430-2564, looked up, variant K2524Q R2528Q K2529Q)
chain: LAAAEENIEVARAARLAQIFKEICDGIISYKDSSRQALAAPLLNLPPKKKNADYYEKISDPLDLITIEKQILTGYYKTVEAFDADMLKVFRNAEQYYGQQSPVGRDVCRLRKAYYNARHEASAQIDEIVGETASE
modifications: bromodomain
notes: K2524Q/R2528Q/K2529Q mutant of ASH1LBD
DNA binding [1]: lost its ability to bind DNA

Next, values leading:

DNA binding [1]: forms a complex with DNA
B3: ASH1LBD: Human ASH1L bromodomain (aa 2430-2564) (protein)
chain: B5 chain with Q95K, Q99R, Q100K
modifications: left off: GST, end not stated, cleaved

DNA binding [1]: diminished
B4: K2477Q/K2478Q/K2479Q mutant: K2477Q/K2478Q/K2479Q mutant of ASH1LBD (protein, UniProt Q9NR48 2430-2564, looked up, variant K2477Q K2478Q K2479Q)
chain: B5 chain with K48Q, K49Q, K50Q, Q95K, Q99R, Q100K
modifications: bromodomain
notes: K2477Q/K2478Q/K2479Q mutant of ASH1LBD

DNA binding [1]: forms a tight complex with 601 DNA
binding to unmodified 187 bp NCP ([2]; 0.025 µM nucleosome, pH 7.5, compared to unmodified 147 bp NCP): increased
binding to H3K4me3-NCP ([3]; 0.025 µM nucleosome, increasing protein, pH 7.5, on ice 5 min): formed a tight complex
binding to unmodified 147 bp NCP [4]: decreased
B6: ASH1LPHD-BAH: Human ASH1L construct (aa 2579-2794 and 2579-2834) (protein, UniProt Q9NR48 2579-2834, looked up, fragment)
chain: HEKDDDVIRCICGLYKDEGLMIQCDKCMVWQHCDCMGVNSDVEHYLCEQCDPRPVDREVPMIPRPHYAQPGCVYFICLLRDDLLLRQGDCVYLMRDSRRTPDGHPVRQSYRLLSHINRDKLDIFRIEKLWKNEKEERFAFGHHYFRPHETHHSPSRRFYHNELFRVPLYEIIPLEAVVGTCCVLDLYTYCKGRPKGVKEQDVYICDYRLDKSAHLFYKIHRNRYPVCTKPYAFDHFPKKLTPKKDFSPHYVPDNYK
modifications: also 2579-2794 construct
